Assay results from article PMC4344939.

Molecular target: Recombinant human galectin-1 (human) (UniProt P09382)
Test: SPR

Sequence of UniProt P09382 (P09382 whole entry): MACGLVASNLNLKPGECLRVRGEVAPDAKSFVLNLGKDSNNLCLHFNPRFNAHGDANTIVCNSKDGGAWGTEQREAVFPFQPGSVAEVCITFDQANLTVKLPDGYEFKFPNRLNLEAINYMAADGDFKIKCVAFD

Work on “Recombinant hemagglutinin (HA) from influenza A H1N1 (A/Puerto Rico/8/1934) (from UniProt P03452) (natural protein)” yielded a Kd of 425 nM.
